According to article PMC7891396:

Target: Int^C-eGFP-H6 with the C124A and N146A mutations (construct 9), inactivated C-terminal precursor of the AceL NrdHF split intein (not stated (metagenomic contig from the Antarctic Ace Lake, might originate from a bacteriophage))
Test: MST; Monolith NT.115; 9 at 8.8 nM (eGFP as fluorophore), 1 in a dilution series from 2500 to 0.61 nM; BSA 0.05 % (w/v) and Tween-20 0.1 % (v/v) added; 20 % MST power, 20 % blue LED; four parametric sigmoidal fit

Kd: 82.2 nM
Substance: MBP-Int^N-H6 (1), N-terminal precursor of the AceL NrdHF split intein (domain or fragment)
